Experimental data from patent US9695461B2, “Method for adapting a hydrolytic enzyme to a component that stabilizes the hydrolytic enzyme” (Henkel AG & Co. KGaA, priority 2011, dated 2017).
Residue numbers refer to the chain shown, from its start. Numbers in names are those of the source.

What was measured:
[1] = tested on: protease according to SEQ ID NO: 3; assay: Relative proteolytic activity with reversible inhibitor in liquid surfactant preparation (Example 1); type: biochemical; details: 50% conc. surfactant preparation, 0.92 mM AAPF, 25° C., pH 8.6, relative to same protease without inhibitor; for relative activity, 3-HPBA: 3-HPBA in amount inhibiting starting enzyme by 20-40%; for relative activity, 4-FPBA: 4-FPBA in amount inhibiting starting enzyme by 20-40%; for relative activity, Boric acid: boric acid in amount inhibiting starting enzyme by 20-40%; for relative activity, BMA: benzylmalonic acid in amount inhibiting starting enzyme by 20-40%
Excerpt: The relative activity to be determined in process step c) of the hydrolytic enzyme modified in process step b) is given by [measured activity of the hydrolytic enzyme modified in process step b) in the presence of the component that stabilizes the hydrolytic enzyme] divided by [measured activity of the hydrolytic enzyme modified in process step b) in the absence of the component that stabilizes the hydrolytic enzyme] multiplied by 100.
The relative activity of the starting enzyme to be determined in process step c) is given by [measured activity of the starting enzyme in the presence of the component that stabilizes the hydrolytic enzyme] divided by [measured activity of the starting enzyme in the absence of the component that stabilizes the hydrolytic enzyme] multiplied by 100.
The nucleic acid sequence of the hydrolytic enzyme present on a plasmid was modified individually or in combination as indicated in Tables 1 and 2 using site directed mutagenesis by means of specific, adapted primers using a Phusion Hot Start Polymerase at the positions S166, A187, F189 or Q191 in the counting according to SEQ ID NO: 1, and the resulting variants were transformed into a suitable host. Active clones were selected by means of a protease-sensitive medium and the DNA sequence was sequenced after isolation of the plasmid for identification purposes. The modified proteases were expressed in the Bacillus host and prepared for the activity determination.
The activity was determined in a liquid preparation that was constituted as follows (all data in wt %): 0.3-0.5% xanthan, 0.2-0.4% defoamer, 6-7% glycerin, 0.3-0.5% ethanol, 4-7% FAEOS (fatty alcohol ether sulfate), 24-28% non-ionic surfactants, 1-2% sodium citrate (dihydrate), 2-4% soda, 14-16% cocoanut fatty acids, 0.5% HEDP (1-hydroxyethane-(1,1-diphosphonic acid)), 0-0.4% PVP (polyvinyl pyrrolidone) 0-0.5% optical brightener, 0-0.001% % colorant, the remainder being demineralized water.
To a 50% conc. liquid preparation of the liquid surfactant preparation were added 0.92 mM AAPF. The reversible inhibitor to be tested was also comprised in the required amount to inhibit the starting enzyme by 20-40%. 20 μl of the respective protease (starting enzyme as well as modified protease variants) were added and the proteolytic activity determined from the release of the chromophore para-nitroaniline (pNA) from the substrate suc-L-Ala-L-Ala-L-Pro-L-Phe-p-nitroanilide (suc-AAPF-pNA). The protease cleaves the substrate and releases pNA. The released pNA causes the extinction at 410 nm to increase; the change in extinction as a function of time is a measure of the enzymatic activity (see Del Mar et al., 1979). The measurement was carried out at a temperature of 25° C., at pH 8.6 and a wavelength of 410 nm.
The measured activity was compared with the activity of a reference formulation of the same protease sample without inhibitor and the respective relative activities of the modified proteases and the starting enzyme were determined. […] The results are presented in the following Tables 1 and 2 (the relative activities are each given).

[2] = tested on: protease according to SEQ ID NO: 3; assay: Inhibition measurements in the biochemical test (Example 2); details: 0.1 M Tris/HCl pH 8.6 with Brij35, suc-AAPF-pNA
Procedure: The variants S166V and S166G/Q191R as well as the starting enzyme according to SEQ ID NO: 3 were expressed in a suitable expression system, further purified by means of ion exchange chromatography and prepared for the activity determinations in 0.1 M Tris/HCl buffer pH 8.6, comprising Brij35. To the formulations were added increased amounts of the reversible inhibitor 3-HPBA or BMA (see Tables 3 and 4) and the proteolytic residual activity of the respective protease was determined from the release of the chromophore para-nitroaniline (pNA) from the substrate suc-L-Ala-L-Ala-L-Pro-L-Phe-p-nitroanilide (suc-AAPF-pNA) as described above.

B1: S166: protease according to SEQ ID NO: 3 used as the hydrolytic enzyme (starting enzyme) (protein, listed as Bacillus lentus)
chain: AQSVPWGISRVQAPAAHNRGLTGSGVKVAVLDTGISTHPDLNIRGGASFVPGEPSTQDGNGHGTHVAGTIAALNNSIGVLGVAPSAELYAVKVLGADGEGAISSIAQGLEWAGNNGMHVANLSLGSPSPSATLEQAVNSATSRGVLVVAASGNSGASSISYPARYANAMAVGATDQNNNRASFSQYGAGLDIVAPGVNVQSTYPGSTYASLNGTSMATPHVAGAAALVKQKNPSWSNVQIRNHLKNTATSLGSTNLYGSGLVNAEAATR
- relative activity, 3-HPBA ([1]; Table 1): 83%
- relative activity, 4-FPBA ([1]; Table 1): 75%
- relative activity, Boric acid ([1]; Table 1): 83%
- relative activity, BMA ([1]; Table 2): 81%
- relative activity, Boric acid ([1]; Table 2): 79%
- proteolytic residual activity, 3-HPBA ([2]; 3-HPBA 0.05 mM): 93%
- proteolytic residual activity, 3-HPBA ([2]; 3-HPBA 0.1 mM): 89%
- proteolytic residual activity, 3-HPBA ([2]; 3-HPBA 0.5 mM): 81%
- proteolytic residual activity, 3-HPBA ([2]; 3-HPBA 1 mM): 65%
- proteolytic residual activity, 3-HPBA ([2]; 3-HPBA 1.5 mM): 56%
- proteolytic residual activity, BMA ([2]; BMA 0.05 Gew.-%): 96%
- proteolytic residual activity, BMA ([2]; BMA 0.5 Gew.-%): 95%
- proteolytic residual activity, BMA ([2]; BMA 1.0 Gew.-%): 93%
- proteolytic residual activity, BMA ([2]; BMA 1.7 Gew.-%): 94%
- proteolytic residual activity, BMA ([2]; BMA 2.5 Gew.-%): 74%
- proteolytic residual activity, BMA ([2]; BMA 3.3 Gew.-%): 73%
- proteolytic residual activity, BMA ([2]; BMA 4.0 Gew.-%): 78%
- proteolytic residual activity, BMA ([2]; BMA 5.0 Gew.-%): 64%

B2: A187D: protease of SEQ ID NO: 3 with amino acid substitution A187D in the count according to SEQ ID NO: 1 (protein, listed as Bacillus lentus)
chain: B1 chain with A181D
- relative activity, BMA ([1]; Table 2): 79%
- relative activity, Boric acid ([1]; Table 2): 47%

B3: S166V: protease of SEQ ID NO: 3 with amino acid substitution S166V in the count according to SEQ ID NO: 1 (protein, listed as Bacillus lentus)
chain: B1 chain with S160V
- relative activity, 3-HPBA ([1]; Table 1): 53%
- relative activity, 4-FPBA ([1]; Table 1): 71%
- relative activity, Boric acid ([1]; Table 1): 59%
- proteolytic residual activity, 3-HPBA ([2]; 3-HPBA 0.05 mM): 84%
- proteolytic residual activity, 3-HPBA ([2]; 3-HPBA 0.1 mM): 87%
- proteolytic residual activity, 3-HPBA ([2]; 3-HPBA 0.5 mM): 65%
- proteolytic residual activity, 3-HPBA ([2]; 3-HPBA 1 mM): 51%
- proteolytic residual activity, 3-HPBA ([2]; 3-HPBA 1.5 mM): 40%

B4: Q191R: protease of SEQ ID NO: 3 with amino acid substitution Q191R in the count according to SEQ ID NO: 1 (protein, listed as Bacillus lentus)
chain: B1 chain with Q185R
- relative activity, BMA ([1]; Table 2): 63%
- relative activity, Boric acid ([1]; Table 2): 76%

B5: S166A: protease of SEQ ID NO: 3 with amino acid substitution S166A in the count according to SEQ ID NO: 1 (protein, listed as Bacillus lentus)
chain: B1 chain with S160A
- relative activity, 3-HPBA ([1]; Table 1): 83%
- relative activity, 4-FPBA ([1]; Table 1): 61%
- relative activity, Boric acid ([1]; Table 1): 76%

B6: S166G/Q191R: protease of SEQ ID NO: 3 with amino acid substitutions S166G and Q191R in the count according to SEQ ID NO: 1 (protein, listed as Bacillus lentus)
chain: B1 chain with S160G, Q185R
- relative activity, BMA ([1]; Table 2): 35%
- relative activity, Boric acid ([1]; Table 2): 57%
- proteolytic residual activity, BMA ([2]; BMA 0.05 Gew.-%): 88%
- proteolytic residual activity, BMA ([2]; BMA 0.5 Gew.-%): 55%
- proteolytic residual activity, BMA ([2]; BMA 1.0 Gew.-%): 42%
- proteolytic residual activity, BMA ([2]; BMA 1.7 Gew.-%): 35%
- proteolytic residual activity, BMA ([2]; BMA 2.5 Gew.-%): 38%
- proteolytic residual activity, BMA ([2]; BMA 3.3 Gew.-%): 32%
- proteolytic residual activity, BMA ([2]; BMA 4.0 Gew.-%): 36%
- proteolytic residual activity, BMA ([2]; BMA 5.0 Gew.-%): 32%

B7: A187D/F189R: protease of SEQ ID NO: 3 with amino acid substitutions A187D and F189R in the count according to SEQ ID NO: 1 (protein, listed as Bacillus lentus)
chain: B1 chain with A181D, F183R
- relative activity, BMA ([1]; Table 2): 43%
- relative activity, Boric acid ([1]; Table 2): 37%

B8: S166G: protease of SEQ ID NO: 3 with amino acid substitution S166G in the count according to SEQ ID NO: 1 (protein, listed as Bacillus lentus)
chain: B1 chain with S160G
- relative activity, BMA ([1]; Table 2): 80%
- relative activity, Boric acid ([1]; Table 2): 65%

B9: F189R: protease of SEQ ID NO: 3 with amino acid substitution F189R in the count according to SEQ ID NO: 1 (protein, listed as Bacillus lentus)
chain: B1 chain with F183R
- relative activity, BMA ([1]; Table 2): 80%
- relative activity, Boric acid ([1]; Table 2): 53%

B10: S166Y: protease of SEQ ID NO: 3 with amino acid substitution S166Y in the count according to SEQ ID NO: 1 (protein, listed as Bacillus lentus)
chain: B1 chain with S160Y
- relative activity, 3-HPBA ([1]; Table 1): 58%
- relative activity, 4-FPBA ([1]; Table 1): 100%
- relative activity, Boric acid ([1]; Table 1): 68%
